Data: the DeepSol protein solubility set

Test: soluble on expression in E. coli; label from the status in PepcDB or PDB records

Soluble on expression in E. coli, soluble:
MNIILKISGKFFDEDNVDNLIVLRQSIKELADNGFRVGIVTGGGSTARRYIKLAREIGIGEAYLDLLGIWASRLNAYLVMFSLQDLAYMHVPQSLEEFIQDWSHGKVVVTGGFQPGQSTAAVAALVAEASSSKTLVVATNVDGVYEKDPRIYADVKLIPHLTTQDLRKILEGSQSVQAGTYELLDPLAIKIVERSKIRVIVMNYRKLNRIIDILKGEEVSSIIEPV, MNINIVTIGKLKEKYLKQGIEEYTKRLSAYAKIDIIELPDEKAPENLSDQDMKIIKDKEGDRILSKISPDAHVIALAIEGKMKTSEELADTIDKLATYGKSKVTFVIGGSLGLSDTVMKRADEKLSFSKMTFPHQLMRLILVEQIYRAFRINRGEPYHKLEHHHHHH, MNIRPLHDKLIVERLEVENKSEGGIVLTSQSVKKSNRGKVVAVGLGRPLKNGDRARMEVKTGDQIIFNDGYGVKTEKVDGKEYLILSESDVLAIVE, MNKEALVQVAEEVRRATGLPVGWRDVERTLGALRATRDLWEAVRLSRVPLRFLVPIWEGLARRGLLRVEEGLDLLAEVPAPRPGEAACPACEGRGLVGERLPGRAAERFLAWAKERPEAIQDFDQGYVTPESTLARVALAWNWGDLEGKEVLVLGDDDLTGLAAALTGLPKRVVVLDADPRIVRFLERAAKAEGLPLEAHVHDLREPLPEAWVHAFHTFFTDPVEGPLGLQAFVGRGLLALEGEGCAGYVGLTHVEASLAKWADFQRFLLENGAVITELRDGFHVYENWGYIEQMRAWPWLPVKRRPEKPWYTSALIRLELLRRADLENARVEGDLQDEEATTY, MNKIFIYAGVRNHNSKTLEYTKRLSSIISSRNNVDISFRTPFNSELEISNSDSEELFKKGIDRQSNADDGGVIKKELLESDIIIISSPVYLQNVSVDTKNFIERIGGWSHLFRLAGKFVVTLDVAESNGSDNVSEYLRDIFSYMGGQILHQVSITNSLKDIAEAQLMEATYKIEDVLEGKIKYKTTDYQERAYQTLKLILENYDSEHFEKMYWEKKRLFEANSLEEWYYVENIKLEHHHHHH, MNKPLTPSTYIRNLNVGILRKLSDFIDPQEGWKKLAVAIKKPSGDDRYNQFHIRRFEALLQTGKSPTCELLFDWGTTNCTVGDLVDLLVQIELFAPATLLLPDAVPQTVKSLPP, MNKRCEEVLRRYFAEVPFIIEKACELAESMLGEGSHGLSHTIRVLDLALQIGRVEGANLEVLALAAILHDIARPLEDKGRIKDHAQEGARIVRSFLSKLRYPHVDEVAHAIEAHRFSTNIEPRTLEAKILSDADKIDALGAIGIARVFMYAGEKGRSIEDSIKHFEEKILRLKDLMYTETGKRIAQERHKIVEEFVNILKKELIAAALEHHHHHH, MNLDELLLLIEKNRSQLSKIDDDFYEKLRERIAELEEMKSSAGESDFFRYEDEIRTLKRLQRKIFELRTGKIISAAWAEVCGQQFSSDVENMCSDERVFFKKLIDIIKEFKRSILEGGKRKISDRVLVRIKKDVEIQGADGKTYKLRREDVVTLPQLNADALIKGGIAERIEVKEDEVSQEGLEHHHHHH, MNLLKTIEKVKANWGGKYFSIEFVKNPKKVVRDWRNSGGIVVHLTMYGIPIDNIMEKIINKNTKILVVVGSEKVEGWYYYNSDYNIAIGNQPHSEVAALAIFLDRIYKGGELNIQFSDAKLSIIPQERGKKVRKNE, MNLLVIGGHERMEKDYMVMAKKKGYKTKVYTTMSSKLNNSIGRPDAVVILTSTVSHKMSRTVESQAKKQDILIVRHKNSLEHHHHHH, MNNAHEENISSVTGFKSTSGSPAIGSSLPGRSGEGRSSSSSSGSTALLAVVNSTLKAIFSNTLDSIFHMVCTDSDKRLSSEFHCLQSMFNLQLFVNLGCPLS, MNNMSLSDIFERFDTSKDGKISWEEFRDAIHALSPSIPSEKLVEMFIQLDTNGDGQVDAAKFASCMDQTAQSSGGDVEKELKDAFKLYDINCDGKISANELHVVMTRLGEKCTVESCVGMVQAIDVDGDGYIRFVGV

Soluble on expression in E. coli, not soluble:
MNINEPSVSIIMATYNSEKFLRETLDSICCQTYGNWELIITDDSSTDNTSDILRDYSERYNNIFYSINEVNQGAAISRNKCISQAKGMYIAFIDSDDLWAHNKLEKHIHFIAEHNSAISFTSYELMNENGIPLGKYVDANIPPVLTYNDMLRKKATIGCSTVILSSKLVGEFKMPLLRTGQDYATWLLLLKKVEVAHHFPKVLTKYRVCKNSISRNKFKKAKRQWQIYREVEKLPFYESIVCFCFYAWRAVFRK, MNIVEEHREKCTQCGQCLSVCPRYDDLGLLDLLYGYLEGTSEIEPDSLLSCLTCGLCADACPEALGIKMLISPARQKWVSEHGLTDRQLEHHHHHH, MNIYQQLVKQKLKTITPEELVSYSREYGLPITTSQAKQILHLARTNDINVFDPEERKKWVRELAKITSPDIARKANELFLKFVQKK, MNKFHDIFLELEQQIVQGDYQPGDLLPSENQLVETYNVSRETIRKALNLLINAGYIQKKQGKGSIVLNFKKFNFPISGVTSYKELQQTQHIESHTHVVSLEEIPVERNLAQLTGWTEGAPVWRLVRQREIEGEVDILDIDYLIKEIVPELPKHRAEDSIFDYLENDLGLAISYAQKEITVEPLTEMDKQLIGEVEGNHVVVVRSIMNLEDTRCFGYTESRHRLNKFKFVEFARRRKL, MNKKTIQDLIPKAMQAIEGVGIVGKDKKFEKVHEGYINALGPTIIQSGLLPTLIFYNKDKRELWLKALYYMEIISNDIDPTAIIQLIIKEGDSESRQEKTLKELEPKAKEWERKILEYAVALKLALRTFVAKESETGNTEQQKGGAQ, MNKRMKMCPACQQGYLYHSKPKYLHDEIILCDECDAVWLKGMNIFYGEYEKDFYSYVPFMESQGITSECIWEGDLFDHPYYEDENSNDMD, MNKWSRLYVITVRRTFPGRRNIVLTQYWNKSKKMSDESNDVKWNDALTPLQLMVLRDKATERPNTGAYLHTNESGVYHCANCDRPLYSSKAKFDARCGWPAFYEEVSPGAITYHRDNSLMPARVEICCARCGGHLGHVFEGEGWKQLLNLPKDTRHCVNSASLNLKKD, MNLEKINELTAQDMAGVNATILEQLNSDVQLINQLGYYIISGGGKRIRPMIAVLAARAVGYQGNAHVTIAALIEFIHTATLLHDDVVDESDMRRGKATANAAFGNAASVLVGDFIYTRAFQMMTSLGSLKVLEVMSEAVNVIAEGEVLQLMNVNDPDITEENYMRVIYSKTARLFEAAAQCSGILAGCTPEQEKGLQDYGRYLGTAFQLIDDLLDYSADGEHLGKNVGDDLNEGKPTLPLLHAMRHGTPEQSAMIRTAIEQGNGRHLLEPVLEAMTTCGSLEWTRQRAEEEADKAISALQILPDTPWREALIGLAHIAVQRDR, MNLKSFTRKVSSTRDHRLLAEAIFDQLENLFSPHAIAIFEDPLTNPRCSVSFSRGELYPIQKYPEIFWDWACQFDTSESIIPLAINTCNWNHTQDLGGDSYILMLDNTPIKRTYLLIQSVQARTAHNIYEESYDAMQLAAARWQCIRAEKNASQEMRHRDIREAQYVDEISQRERFIENMKLVQQVALEISNPDSLKDLYYKAVEALRERLGFDRTTLMLLDMKKRSFSGTYGTDESGITIDEFHTQYDLHQLSEEYIAALSSLESNLVIIEDAPIYTAGKVVGQGWNAMLILRDGNEPFGWFALDNFIHRKPITAYQKQMLDSFGSLFSQIYIRKRQEQNVRMLHSSMVELSRCTTVSDVCKSAVTFAIKNLGIDRMAVFLTDENCSYMQGTWGTDIQGNVVDESYFFGETQNFSLINLARAVPSEVAFEESVPIYHDCNIVG, MNLLQHIAQSRQQLRKSELKVADHVLNDPASVMHSSMAELAHGVGVSEPTIVRFCRAIGCSGFQDLKLKLAQSLAAGASFGQFSIHESDSVADFSLKIFDTTLHSLMEVREHLDTHALERAIAAIAHAQRVEFYGFGASGAVASDAQHKFFRLLLSAAAYSDPHMQAMSAVTLKPSDVAICISQSGRSKDLLITANLVREAGATLITLCPSQTPLADLATVNLAIDVHEDTDIYTPLTSRIAHLVVIDVLAMGVAMARGPDLVNHLKSVKRSLRSLRLSPKVMKNQEERGEPS, MNLNNIRSSMTESTKSKDESMRSHLVKPGSVYDGIEPGELGETTESVQDRVRQLESRNSFLEEQCSQIESEKRYLENQKIKYEREIRKLQSELDRMKTSPLIIGTVIDVIKNDRIIVRSSNGPQFLVNVSQYIDEKKLLPGAKVALNQHTLAIAEVIPSTEEPFVAAMEVIESVEVDYDQIGGLDEQIQELQEAVELPLTSPERFARIGIEPPKGVLLYGLPGTGKTLLAKAVAHRTNATFIRVVGSELVQKYIGDGSKLVREIFEMARKKAPSIIFIDELDSIAARRLNETTGADREVQRTLMQLLAEMDGFDKRKNIRIIAATNRPDVLDPAILRPGRFDRLVHVPMPGIEARGKILKIHCEKMTLAEDIDFKKLAKATEGMSGADLKAIATEAGMFAVRRDKELVEMEEFLEAVEKVSMAADTQKMMPSNLPETMFV, MNMNKETHICALCERKVPKITEHHLIPREKGGRFDETTWLCVPCHKQVHALYSNYELAVRLNSLPRLKDDEKIKRYLKFIKKQPGDANVTIKKSKAIRKKGRYLEHHHHHH, MNNAMQLLQPYPFKKLRALLGSVTPNPEKRPVALSIGEPKHRSPDFVAKALADNLDQMAVYPTTLGIPALREAIAGWCNRRFGVPQGWIDPARNVLPVNGTREALFAFTQTVVNRSDDGLVVSPNPFYQIYEGAAFLAGAQPHYLPCLSDNGFNPDFDAVDADIWKRCQILFLCSPGNPTGALIPVETLKKLIALADEHDFVIAADECYSELYFDEQTPPPGLLSACVELGRQDFKRCVVFHSLSKRSNLPGLRSGFVAGDAEILKAFLLYRTYHGCAMPVQTQLASIAAWNDEEHVRANRDLYREKFDAVLDILAPVLDVQRPDGGFYLWPNVGTDDAAFCRDLFVDQHVTAVPGSYLSREVDGVNPGAGRVRLALVAPLAECIEAAERIRAFVLK, MNNFFKHTLETHTPQSMSKITSYIREDIKNSNIENGIVVVYCPHTTAGITINENADPDVVKDLIYGFEKVYPTNDHKYRHFEGNSHSHLKSSTVGVSQQLILHRGRLILGQWQDVYFCDFDGPRNRTFYVKILEGLEHHHHHH, MNNLSVNGSSNGLFAKPTIGRSEYGRVKVALAPGKGFMDWLRLTTNKHLAKRVSGGVDHVELMKHNTKDDCWVHLFGIVYDVTKYLDFHPGGIPELLRGAGRDATPLFNQYHAWVNYESMLKACVVGPFIGDLTKLPSPLPPTTSDDKNKLGVPSSALFSTDPSENGYGARVETLSDNSGISFEHDDWTELTEHNTSINTRGEENTEEHARLRVLIHHFWKPAMEFEFEPTPALCHVEYTLKIMKNRVEIRFSREISGGKIDRSKCKIQRRPGVTYHTTEIIDRYRLNHDTLIFSLQLPEHTTYRIPIGHHVSIKIRKGSMGKFSWKFFLIFGYSVLYRPYTPISNPDPQKIDFMIKIYSNGICTPSLENLKIGGELEISDPIGERNFAEWTENAQELILLAAGSGITPMIDIMEKRIQKTENSNSKVYFLMFNKTENDLQTGKPEENPKSTWKMADFYSKYRGDERIVMKNVLSASECPVETGEYFNGRVSTDLLNSIISTSSTASRRAFICGPDGFILAAKTALESLNLHSDQIHIFQG
